The text below walks through data of publication PMC8885657, “HPV infection alters vaginal microbiome through down-regulating host mucosal innate peptides used by Lactobacilli as amino acid sources” (Nature Communications, 2022).

For one assay, the system named is E-cadherin (CDH1). The assay is described as follows: Reactivation of hypermethylated CDH1 gene (Western blot). The assay is classed as cell-based, human. The settings on record: 5 µM. The method, then:
Immortalized keratinocytes (1.5 × 10^5 cells per well of a six-well plate) were transfected with ON-TARGETplus SMARTpool siRNAs targeting p65, β-catenin or c-Myc (Dharmacon, Lafayette, CO, USA) using Oligofectamine Transfection Reagent (Invitrogen). Oligos targeting the firefly luciferase gene (siGL2) were used as control. For each experiment, siRNA (40 nM) and 6 µl of Oligofectamine were diluted in 1 ml of Optimem (Invitrogen). The cells were incubated with the mixture for 4 h at 37 °C. Twenty-four hours after transfection, cells were either harvested or stimulated with LPS (2 µg/ml) or TNFα (20 ng/ml) and experiments were performed. For the chemical inhibition of NF-kB or c-Myc, BAY 11-7082 (5 µM, Sigma Aldrich) or 10058-F4 (40 µM, Selleckchem, Houston, TX, USA) was added to cell cultures before RNA expression analyses. […]
After extraction in 1% SDS buffer (total extraction) containing protease and phosphatase inhibitors (Roche) and quantification (BCA protein assay kit; Pierce, Rockford, IL, USA), twenty micrograms of proteins were separated on 10% SDS-PAGE and transferred to PVDF membranes (Roche). […] The protein bands were detected using an enhanced chemiluminescence system (Westar ECL-Sun, Cyanagen, Bologna, Italy) and finally quantified by densitometry using ImageJ software. […]

Assay [1] has as its system murine vaginal microbiota. The assay is described as follows: 16S-based metagenomics of cervico-vaginal lavage samples. The assay is classed as in vivo, mouse. The conditions noted are these: FVB/n mice treated (n=12) or not (n=8), subcutaneous implant 1-2 µg/24h, 12 weeks. From the text: FVB/n mice expressing HPV16 under the control of the keratin 14 promoter (K14-HPV16 transgenic mice) were obtained from the National Cancer Institute Mouse Repository. Given that (pre)cancer development within the lower genital tract has been previously shown to be hormone-dependent in this model[75],[76], 6 to 8-week-old female mice (n = 12 per condition) were subcutaneously implanted with a Belma’s E2 implant (E2-M/90, Belma Technologies, Liege, Belgium), allowing reproducible long-term release of 17β-estradiol (1–2 µg/24 h) for 90 days[77]. A similar procedure was performed with control (FVB/n) mice. […]
Mice were randomly distributed in cages and housed under standard conditions [12 h light/12 h dark cycle, ad libitum access to food and water, constant temperature (19–21 °C) and humidity (40–50%)] in the GIGA-Mouse facility platform (University of Liege) during the entire course of the study. […] Seven µl from each samples were spread on a glass slide, fixed/stained using Diff-Quick reagents (Medion Diagnostics, Düdingen, Switzerland) and the estrous cycle stage was determined using established criteria.
DNA was isolated from cervico-vaginal lavage samples using NucleoSpin Tissue kit (Macherey Nagel, Düren, Germany). […] Of note, 7 random nucleotides were added to the 5′ region of forward primer to increase complexity and, therefore, improve sequence read quality. […]

Assay [2] concerns Lactobacillus iners CIP 105923. The assay is described as follows: Antimicrobial assay (surviving colonies, CFU count). The assay is classed as cell-based. The settings on record: peptide 1–10 µg/ml, 5 × 10^4 CFU/ml, 10 mM sodium phosphate buffer, 6 h, 37 °C; plated on Columbia Blood agar; n = 3. The method, then:
(§1) Bacterial strains Lactobacillus crispatus DSM 20356, Lactobacillus iners CIP 105923 and Garnerella vaginalis CCUG 43336 were kindly provided by the Department of Clinical Microbiology at University Hospital Center of Liege. Lactobacillus jensenii LMG 6414 was obtained from BCCM/LMG Bacteria Collection (University of Gent, Belgium). Log-phase bacteria were grown on Columbia agar with 5% sheep blood (Becton Dickinson, Franklin Lakes, NJ, USA) at 37 °C in a humidified CO2 atmosphere (Lactobacilli) or in anaerobic jars (G. vaginalis). To analyze the antimicrobial effect of innate peptides expressed by vaginal/cervical mucosa, 5 × 10^4 colony-forming unit (CFU)/ml were mixed with different peptides (concentration range: 1–10 µg/ml) in 10 mM sodium phosphate buffer (SPB) (final volume 100 µl) and incubated for 45 min to 9 h at 37 °C. Where indicated, the peptides were incubated with 2 mM dithiothreitol (DTT) (Invitrogen, Carlsbad, CA, USA) for 30 min at 37 °C before adding the bacteria. In indicated experiments, incubation was carried out in potassium phosphate buffer (KPB) (pH: 7.4, 10 mM). The following peptides were tested: HβD1 (PeptaNova, Sandhausen, Germany), HβD2 (PeptaNova), HβD3 (PeptaNova), HβD4 (PeptaNova), HD-5 (PeptaNova), HD-6 (PeptaNova), elafin (PeptaNova), S100A7 (Abnova, Taipei City, Taiwan) and SLPI (R&D Systems, Minneapolis, MI, USA). Bacterial suspensions were then plated on Columbia Blood agar plates for 24–48 h to determine CFU. High-resolution images for each condition were taken. Colony detection and counts were finally performed using ImageJ software (NIH, Bethesda, MD, USA) and verified by manual counting.

Assay [3] has as its system Lactobacillus crispatus DSM 20356. The assay is described as above. The conditions noted are these: peptide 1–10 µg/ml, 5 × 10^4 CFU/ml, 10 mM sodium phosphate buffer, 6 h, 37 °C; plated on Columbia Blood agar; n = 3. The assay is classed as cell-based. The method, then: as §1
The subject of another assay is Gardnerella vaginalis. Described as above. The assay is classed as cell-based. The settings on record: peptide 1–10 µg/ml, 5 × 10^4 CFU/ml, 10 mM sodium phosphate buffer, 6 h, 37 °C; plated on Columbia Blood agar; n = 5. How it is done: as §1
The test system of assay [4] is Lactobacillus jensenii LMG 6414. Described as above. The assay is classed as cell-based. The settings on record: peptide 1–10 µg/ml, 5 × 10^4 CFU/ml, 10 mM sodium phosphate buffer, 6 h, 37 °C; plated on Columbia Blood agar; n = 3. How it is done: as §1

In the case of `Nc1ncn([C@H]2C[C@H](O)[C@@H](CO)O2)c(=O)n1` [5-aza-deoxycytidine], the “CDH1 (E-cadherin) expression, Western blot” value with E-cadherin (CDH1) is recorded as “reactivation of silenced CDH1 gene”.

Turning to `C[C@]12CC[C@@H]3c4ccc(O)cc4CC[C@H]3[C@@H]1CC[C@@H]2O` [17β-estradiol], in assay [1], the “composition of murine vaginal microbiota (α- and β-diversity, richness, evenness)” value is recorded as “not altered”.

B1: HD-5: epithelial member of the defensin family, host defense peptide (PeptaNova) (peptide, UniProt Q01523 20-94, looked up)
Defensin alpha 5: ESLQERADEATTQKQSGEDNQDLAISFAGNGLSALRTSGSQARATCYCRTGRCATRESLSGVCEISGRLYRLCCR
For the molecule B1, the “effect on bacterial growth/survival (percentage of surviving colonies)” value (in assay [2]; in assay [3]; with Gardnerella vaginalis; in assay [4]) was “inhibit the growth” throughout.
